Assay [1] has as its target medaka Opn5m (medaka).
For assay [2], the target named is medaka Opn5m (medaka). The source holds these as a separate data set.

Take medaka Gα14a (natural protein): the relative aequorin luminescence (calcium response) after UV light, 293TΔGQ cells cotransfected with OlOpn5m and medaka Gα: against OlGαq, OlGα11a and OlGα11b with medaka Opn5m (medaka) [1] stood at 24 fold.

medaka Gα11c (natural protein): in the assay with medaka Opn5m (medaka) [1], the relative aequorin luminescence (calcium response) after UV light, 293TΔGQ cells cotransfected with OlOpn5m and medaka Gα: against OlGαq, OlGα11a and OlGα11b amounted to 24 fold.

B1: mouse Gα14 (natural protein)
chain: MAGCCCLSAEEKESQRISAEIERQLRRDKKDARRELKLLLLGTGESGKSTFIKQMRIIHGSGYSDEDRKGFTKLVYQNIFTAMQAMIRAMDTLRIQYMCEQNKENAQIIREVEVDKVTALSRDQVAAIKQLWLDPGIQECYDRRREYQLSDSAKYYLTDIERIAMPSFVPTQQDVLRVRVPTTGIIEYPFDLENIIFRMVDVGGQRSERRKWIHCFESVTSIIFLVALSEYDQVLAECDNENRMEESKALFRTIITYPWFLNSSVILFLNKKDLLEEKIMYSHLISYFPEYTGPKQDVKAARDFILKLYQDQNPDKEKVIYSHFTCATDTENIRFVFAAVKDTILQLNLREFNLV
Turning to B1, the relative aequorin luminescence (calcium response) after UV light, ATR-reconstituted OlOpn5m in 293TΔGQ cells: mGα14 against mGαq with medaka Opn5m (medaka) [2] stood at 27 fold.
